The source of these data is PMC4267838.

This assay concerns the target histone deacetylase 5 (rat (endogenous in Sprague-Dawley rat cardiac myocytes)). Description: co-IP; HDAC5 precipitated from equal amounts of cardiac myocyte nuclear extracts, 14-3-3 detected by western blotting; cells treated with vehicle, ET1 (0.1 µM), PPAR ligands (troglitazone 1 µM, fenofibrate 10 µM, GW501516 1 µM), with or without shRNA knockdown of DGKζ.

The substance “14-3-3 chaperone proteins (from UniProt P63102 1-245) (natural protein)” came in with a percent of normalized 14-3-3 in HDAC5 precipitates of ET1-treated cells vs. vehicle-treated control (% vs. control) of 138.
